Laboratory results reported in patent US5972599, “High affinity nucleic acid ligands of cytokines” (NeXstar Pharmaceuticals, Inc.).
Residue numbers refer to the chain shown, from its start.

B1: IL-4 2'F/NH2-25 (ssRNA)
RNA: GGGAGACAAGAAUAAACGCUCAAAGAGCCGUUUUGGGGACCCACAGUAACGGGUUUAUGGUAUUCGACAGGAGGCUCACAACAGGC
modifications: 2'-F C, 2'-NH2 U
B2: IL-10 ligand 68 (ssRNA)
RNA: GGGAGACAAGAAUAAACGCUCAAACAUCGUAUAAUCUCUCUAAGAGCCUGGAAUACGAUGAAUUCGACAGGAGGCUCACAACAGGC
modifications: 2'-F C and U
B3: IL-4 2'NH2-22 (ssRNA)
RNA: GGGAGACAAGAAUAAACGCUCAACAGAUGGUAUCUAGUGGAGAGCCACAUCAACGGCGCAGAUUCGACAGGAGGCUCACAACAGGC
modifications: 2'-NH2 C and U
B4: IL-4 2'NH2-B16 (ssRNA)
RNA: GGGAGACAAGAAUAAACGCUCAAUCACAAGCACCCUUGGGGAGCCACAUUAACGGCCUAGGCUUCGACAGGAGGCUCACAACAGGC
modifications: 2'-NH2 C and U
B5: IL-4 2'NH2-B29 (ssRNA)
RNA: GGGAGACAAGAAUAAACGCUCAAUGACUGAACGAUGGUAUUGGAGAGCCACAUCAACGGCAAUUUCGACAGGAGGCUCACAACAGGC
modifications: 2'-NH2 C and U
B6: IL-4 2'NH2-B14 (ssRNA)
RNA: GGGAGACAAGAAUAAACGCUCAAUAAAUGGAGAGCCACACUAACGGCGUAUGAAAACACUCAUUCGACAGGAGGCUCACAACAGGC
modifications: 2'-NH2 C and U
B7: IL-4 2'NH2-B26 (ssRNA)
RNA: GGGAGACAAGAAUAAACGCUCAAAUGGAGAGCCACAUUAACGGCAGCAUAUCACAGUAGGAAUUCGACAGGAGGCUCACAACAGGC
modifications: 2'-NH2 C and U
B8: IL-4 2'F/NH2-41 (ssRNA)
RNA: GGGAGACAAGAAUAAACGCUCAAAGUAACGUGGGGAGCCACACGUAAUACGGCACUAAUUCGACAGGAGGCUCACAACAGGC
modifications: 2'-F C, 2'-NH2 U
B9: IL-10 ligand 55 (ssRNA)
RNA: GGGAGACAAGAAUAAACGCUCAAACAUCGUAUAAUCUCUAAGAGCCUGGAUAUACGAUGAAUUCGACAGGAGGCUCACAACAGGC
modifications: 2'-F C and U
B10: IL-10 ligand 34 (ssRNA)
RNA: GGGAGACAAGAAUAAACGCUCAACUGAGAUCUCUAAGAGCCUGGACUCAGCUCCGAUUGAUCCUUCGACAGGAGGCUCACAACAGGC
modifications: 2'-F C and U
B11: IL-10 ligand 41 (ssRNA)
RNA: B10 RNA with U61A
modifications: 2'-F C and U
B12: IL-4 2'NH2-B5 (ssRNA)
RNA: GGGAGACAAGAAUAAACGCUCAACGAUAGUAUACACAUGAUGAUGGGGAGCCACGUGUACGGCUUCGACAGGAGGCUCACAACAGGC
modifications: 2'-NH2 C and U
B13: IL-4 2'NH2-27 (ssRNA)
RNA: GGGAGACAAGAAUAAACGCUCAACCUUGUGGGGAGCCACGUAUACGGCCAUAGCAUACCGCAAUUCGACAGGAGGCUCACAACAGGC
modifications: 2'-NH2 C and U
B14: IL-4 2'NH2-B24 (ssRNA)
RNA: GGGAGACAAGAAUAAACGCUCAAAGAUUUAAAGUAUUUGGGGAGCCACAUCAACGGCAUUGUGUUCGACAGGAGGCUCACAACAGGC
modifications: 2'-NH2 C and U
B15: IL-4 2'NH2-12 (ssRNA)
RNA: GGGAGACAAGAAUAAACGCUCAAGGACUGGUGAGCCACGUAUACGGUCUUAGGGGCUUGGGCGUUCGACAGGAGGCUCACAACAGGC
modifications: 2'-NH2 C and U
B16: IL-4 2'NH2-31 (ssRNA)
RNA: B15 RNA with G25U, A26G, U40C, G60A
modifications: 2'-NH2 C and U
B17: IL-4 2'NH2-B31 (ssRNA)
RNA: B15 RNA with G25A, A26G
modifications: 2'-NH2 C and U
B18: IL-10 ligand 54 (ssRNA)
RNA: GGGAGACAAGAAUAAACGCUCAAAUCCCAAUCUCUAAGAGCCUGGAUGACAAUCGCAUUGGGCUUCGACAGGAGGCUCACAACAGGC
modifications: 2'-F C and U
B19: IL-4 2'NH2-B8 (ssRNA)
RNA: GGGAGACAAGAAUAAACGCUCAAUGUGGGGAGCCACAGUUAACGGCUUCAACUGAUUAGAAUUCGACAGGAGGCUCACAACAGGC
modifications: 2'-NH2 C and U
B20: IL-10 ligand 6 (ssRNA)
RNA: GGGAGACAAGAAUAAACGCUCAAAUCCCAAUCUCUAAGAGCCUGGAUAAGAAUGCGCAUUGGGCUUCGACAGGAGGCUCACAACAGGC
modifications: 2'-F C and U
B21: IL-10 ligand 57 (ssRNA)
RNA: B20 RNA with A48G
modifications: 2'-F C and U
B22: IL-4 2'F/NH2-13 (ssRNA)
RNA: GGGAGACAAGAAUAAACGCUCAACUCGGGAGCCAGAGUAACAACGGCACUAUAUAAUUUUACUUCGACAGGAGGCUCACAACAGGC
modifications: 2'-F C, 2'-NH2 U
B23: IL-10 ligand 64 (ssRNA)
RNA: GGGAGACAAGAAUAAACGCUCAAACAUCGUAUAACUCUAAGCGCCUGGAUAUACGAUGAAUUCGACAGGAGGCUCACAACAGGC
modifications: 2'-F C and U
B24: IL-10 ligand 64b (ssRNA)
RNA: B23 RNA with C42U
modifications: 2'-F C and U
B25: IL-10 ligand 64a (ssRNA)
RNA: B23 RNA with C42A
modifications: 2'-F C and U
B26: IL-10 ligand 10 (ssRNA)
RNA: GGGAGACAAGAAUAAACGCUCAACUGAGAUCUCUAAGAGCCUGGACUCAGCUCCGACUGACCUUCGACAGGAGGCUCACAACAGGC
modifications: 2'-F C and U
B27: IL-4 2'F/NH2-8 (ssRNA)
RNA: GGGAGACAAGAAUAAACGCUCAAGUCGGAGCGAUGGAGAGCCACGAUAUACGGUCUGUGCGCUUCGACAGGAGGCUCACAACAGGC
modifications: 2'-F C, 2'-NH2 U
B28: IL-4 2'F/NH2-19 (ssRNA)
RNA: GGGAGACAAGAAUAAACGCUCAAGUCUUCCAUGGGGAGCCACAUUAACGGCGCAAUACUGAACUUCGACAGGAGGCUCACAACAGGC
modifications: 2'-F C, 2'-NH2 U
B29: IL-4 2'NH2-17 (ssRNA)
RNA: GGGAGACAAGAAUAAACGCUCAAGUAUUGGGGAGCCACAUUACAACGGCACAGGCAACCAGGGUUCGACAGGAGGCUCACAACAGGC
modifications: 2'-NH2 C and U
B30: IL-4 2'NH2-B18 (ssRNA)
RNA: GGGAGACAAGAAUAAACGCUCAACGAUGGAGCGCCACAUCGCUAUAACGGCAUUUAACAAAAUUUCGACAGGAGGCUCACAACAGGC
modifications: 2'-NH2 C and U

Tests used:
[1] = target: IL-4 (Homo sapiens, UniProt P05112 P05112:25-153); assay: filter; group 1 stated to bind IL-4; conditions: tags: R&D Systems
Chain of IL-4 (P05112 25-153, one chain of several): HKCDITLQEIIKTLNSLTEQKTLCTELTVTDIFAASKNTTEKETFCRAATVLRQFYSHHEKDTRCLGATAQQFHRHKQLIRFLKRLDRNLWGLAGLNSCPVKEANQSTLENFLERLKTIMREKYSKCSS

[2] = target: IL-10 (Homo sapiens, UniProt P22301 P22301:19-178); assay: filter; group statement, at 250 nM IL-10; conditions: tags: Bachem or R&D Systems; chain copies: 2
Chain of IL-10 (P22301 19-178, one chain of several): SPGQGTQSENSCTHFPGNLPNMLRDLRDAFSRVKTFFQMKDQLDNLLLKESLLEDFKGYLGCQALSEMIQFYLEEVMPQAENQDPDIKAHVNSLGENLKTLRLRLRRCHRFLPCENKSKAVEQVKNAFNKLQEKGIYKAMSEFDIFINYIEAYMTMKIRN

| Binder | binding result [1] | binding result [2] |
| --- | --- | --- |
| B1 | binds |  |
| B2 |  | binds |
| B3 | binds |  |
| B4 | binds |  |
| B5 | binds |  |
| B6 | binds |  |
| B7 | binds |  |
| B8 | binds |  |
| B9 |  | binds |
| B10 |  | binds |
| B11 |  | binds |
| B12 | binds |  |
| B13 | binds |  |
| B14 | binds |  |
| B15 | binds |  |
| B16 | binds |  |
| B17 | binds |  |
| B18 |  | binds |
| B19 | binds |  |
| B20 |  | binds |
| B21 |  | binds |
| B22 | binds |  |
| B23 |  | binds |
| B24 |  | binds |
| B25 |  | binds |
| B26 |  | binds |
| B27 | binds |  |
| B28 | binds |  |
| B29 | binds |  |
| B30 | binds |  |
